# Source: patent US11883498B2, “Luteinizing hormone-releasing hormone receptor (LHRH-R) conjugates and uses thereof” (priority 2016, dated 2024)
# Read-outs that look alike come from different tables or passages of the source.
# Assays:
# SKOV3 cells = assay type: cell-based, human; conditions: receptor negative cell line, 2 h exposure + 66 h
# Experimental: (§1) In vitro determination of cell viability. MDA-MB231 and SKVO3 cells were seeded at a concentration of 10,000 cells per well on a 24 well plate and allowed to grow in monolayers. […] After incubating for 2 h at 37° C., cells were rinsed three times with fresh medium and then incubated in 0.5 ml fresh medium for an additional 66 h at 37° C. Sent medium was then replaced with 0.5 ml of medium containing ^3H-thymidine and incubated for additional 4 h. Cells were then again washed three times with the fresh medium and then incubated with 0.5 ml of 2.5% trichloroacetic acid for 10 min at room temperature. After removing the trichloroacetic acid, cells were dissolved in 0.25 N NaOH. Cell viability was determined by counting the incorporation of ^3H-thymidine in cells using scintillation counter (Packard, Packard Instrument Company). The IC50 value was derived from a plot of the percent of ^3H-thymidine incorporation versus log concentration using Graph Pad Prism 4.
# (§2) In vitro cytotoxicity of tubulysin B hydrazide conjugate: To inspect the killing efficiency of the therapeutic conjugate, MDA-MB231 and SKOV3 cancer cells were incubated with various concentrations of JL-L3-TubBH either in the presence or absence of excess JL-L3, for 2 h at 37° C. After washing off the excess conjugate, the cells were incubated in fresh media for an additional 66 h followed by incubation with media containing ^3H-thymidine to assess cell viability. Radioactivity was counted using PerkinElmer's scintillation counter. The same procedure was repeated after exposing the cells to the free tubulysin B hydrazide.
# MDA-MB231 cells = assay type: cell-based, human; conditions: 2 h exposure + 66 h
# Experimental: as §1, §2
# MDA-MB-231 tumors = test: In vivo efficacy of tubulysin B hydrazide conjugate, LHRH-R positive tumors; parameters: species or system mice
# Experimental: (§3) Tumor model and therapy: 5-6 weeks old female nu/nu athymic nude mice were subcutaneously injected with 5.0×10^6 breast cancer cells MDA-MB231 and ovarian cancer cells SKVO3 into their shoulders. Tumors were measured in two perpendicular directions 3 times per week with Vernier calipers, and their volumes were calculated as 0.5×L×W^2, where L is the longest axis (in millimeters), and W is the axis perpendicular to L (in millimeters). Treatment was initiated once the tumor volume reached ˜100 mm^3. Dosing solutions were prepared in sterile saline and injected intravenously. […] Mice were administered with the test agents 3 times per week for 3 weeks and as a measure of gross toxicity mice were simultaneously weighed at each dosing.
# In vivo efficacy of tubulysin B hydrazide conjugate: To investigate the efficacy of JL tubulysin conjugate nu/nu athymic nude bearing LHRH-R positive tumors (MDA-MB-231, breast cancer) were randomly divided into three groups: saline control, targeted, and competition and were then treated with test agents 3 days per week for 3 weeks. LHRH-R positive (MDA-MB-231) and negative (SKOV3) cancer cells were s.c implanted in to nu/nu athymic mice and treatment was initiated once the tumor volume reached ˜100 mm^3. Mice were randomized into several groups with 5 mice in each group. […] All the test agents were administered intravenously through tail vein. The mice in control and competition group were euthanized after the last doing whereas the mice in treatment group were continuously monitored for recurrence of tumor and weight loss. […] (FIG. 22A, The dotted vertical line indicates the day of final dosing (day 36)) Without intending to be bound by theory, this further confirmed that the efficacy of targeted tubulysin B hydrazide conjugate is receptor mediated. Moreover, to comprehensively test the anti-tumor efficacy of targeted conjugate (JL-L3-TubBH), mice bearing LHRH-R negative tumors (SKOV3, ovarian cancer) were divided into similar groups as MDA-MB-231 tumor bearing mice and a similar treatment regimen was followed. […] (FIGS. 22B & 22D)
# After completion of the treatment the mice in MDA-MB-231 targeted group were monitored and kept on regular chow diet for next five weeks. During this time period the tumor volume and weight was monitored three time a week. (FIG. 23) Mice were treated with the LHRH-R targeted tubulysin B hydrazide conjugate (JR-L3-TubBH) for thrice a week for 3 weeks (n=5). After completion of the study tumor volume and weight of mice was continuously monitored till 75 days post tumor implantation. The dotted vertical line specifies the last day of dosing.
# SKOV3 tumors = test: In vivo efficacy of tubulysin B hydrazide conjugate, LHRH-R negative tumors; parameters: species or system mice; conditions: 2 μmol/kg i.v., 3 times per week for 3 weeks
# Experimental: as §3
# In vivo efficacy of tubulysin B hydrazide conjugate: To investigate the efficacy of JL tubulysin conjugate nu/nu athymic nude bearing LHRH-R positive tumors (MDA-MB-231, breast cancer) were randomly divided into three groups: saline control, targeted, and competition and were then treated with test agents 3 days per week for 3 weeks. […] The mice in control and competition group were euthanized after the last doing whereas the mice in treatment group were continuously monitored for recurrence of tumor and weight loss. […]
# [1] = test system: MDA-MB231 tumor xenografts; test: In vivo fluorescence imaging and biodistribution, MDA-MB231 xenografts
# Experimental: (§4) In vivo fluorescence imaging and biodistribution. For the development of subcutaneous tumor xenografts, MDA-MB231, OVCAR-3 and HEC-1B 5×10^6 cells in 0.2 ml sterile PBS were injected subcutaneously in the right hind flank of the female nu/nu mice. Tumor imaging was initiated once the tumor volume reached between 200 mm^3 to 300 mm^3. Each tumor-bearing mice was intravenously injected (via tail vein) with the 10 nano moles of fluorescence dye conjugate either in the presence or absence of a 100-fold excess of the unlabeled conjugate. Animals were euthanized two hours post injection using CO2 and the images were acquired using Caliper IVIS Luminal II. After performing the whole body image, the organs of interest were harvested and imaged to inspect the accumulation of the fluorescence in these organs. The image acquisition parameters were as follows: i) lamp level-high, ii) excitation-745 nm, iii) emission-ICG, iv) binning (M) 4M, (v) f-stop-4, (vi) FOV-12.5, (vii) acquisition time, 1 s. All final conjugates were purified by HPLC prior to its use in in-vitro and in vivo studies.
# To determine the efficiency of the conjugates to target the receptor positive tumor in vivo female nu/nu athymic nude mice were subcutaneously implanted with either MCF7, MDA-MB231, OVCAR3 or HEC-1B. Once the tumor reached an appropriate volume the mice were injected intravenously with the dye conjugates (10 nmoles) either in the presence or absence of the excess of the unlabeled targeting molecule. Mice were imaged 2 h post injection to investigate the accumulation of the dye conjugates in tumor and other vital organs.
# (§5) Mice were treated intravenously with the dye conjugate either in the presence or absence of 100-fold excess of the unlabeled conjugates. […] All the images were acquired 2 h post injection. List of organs from top to bottom: Tumor, heart, lungs, pancreas, spleen, muscle, skin, small intestine, large intestine, stomach, liver, and kidney.
# as §5, with “Tumor, brain,” for “Tumor,”, “stomach,” for “pancreas, spleen, muscle, skin,”, “muscle, pancreas, spleen,” for “stomach,”
# Time course study. The effectiveness of JL-L3-S0456 to accumulate in the receptor-positive tumors were further inspected by injection the dye conjugate in ovarian cancer and endometrial xenografts. […] To investigate the retention time of the dye conjugate in the tumor a time-course study was performed. Mice were injected with 10 nmoles of the dye conjugates and imaged at 2 h, 8 h, and 12 h.
# OVCAR3 tumor xenografts = conditions: ovarian cancer xenografts, 2 h post injection
# Experimental: as §4
# (§6) To determine the efficiency of the conjugates to target the receptor positive tumor in vivo female nu/nu athymic nude mice were subcutaneously implanted with either MCF7, MDA-MB231, OVCAR3 or HEC-1B. […]
# HEC-1B tumor xenografts = conditions: endometrial xenografts, 2 h post injection
# Experimental: as §4, §6
# [2] = 2 μmol/kg i.v., 3 times per week for 3 weeks
# [3] = monitored five weeks after treatment, till 75 days post tumor implantation
# [4] = 10 nmoles i.v., 2 h post injection
SMILES,IC50 (SKOV3 cells) [nM],"IC50 (MDA-MB231 cells; 3H-thymidine incorporation, read-out: IC50) [nM]","IC50 (MDA-MB231 cells; excess JL-L3 (100-fold), read-out: IC50 in the presence of an excess of competition ligand) [nM]","Anti-tumor effect (tumor volume), competition group (MDA-MB-231 tumors; 2 μmol/kg i.v. with 100-fold excess of JL-L3, 3 times per week for 3 weeks)",Anti-tumor effect (tumor volume) (MDA-MB-231 tumors; [2]),Body weight loss (gross toxicity) (MDA-MB-231 tumors; [2]),Tumor growth after end of treatment (MDA-MB-231 tumors; [3]),Weight loss after end of treatment (MDA-MB-231 tumors; [3]),Body weight loss (gross toxicity) (SKOV3 tumors),Anti-tumor effect (tumor volume) (SKOV3 tumors; receptor negative tumors),"Kidney fluorescence [1, 4]","Liver fluorescence [1, 4]","Tumor uptake [1, 4]","Competition of tumor uptake by unlabeled JL-L3 ([1]; 100-fold excess of unlabeled conjugate, 2 h post injection)","Tumor fluorescence intensity at 12 h compared with 2 h post injection ([1]; time course, 10 nmoles, imaged at 2 h, 8 h, 12 h)",Tumor uptake (OVCAR3 tumor xenografts),Tumor uptake (HEC-1B tumor xenografts)
CCCC(=O)OCN(C(=O)[C@@H](NC(=O)C1CCCCN1C)C(C)CC)[C@H](C[C@@H](OC(C)=O)c1nc(C(=O)N[C@@H](Cc2ccc(O)cc2)C[C@H](C)C(=O)NNC(=O)OCCSSC[C@@H](NC(=O)[C@@H](CCC(=O)NC[C@H](O)[C@@H](O)[C@H](O)[C@H](O)CO)NC(=O)[C@@H](CCC(=O)O)NC(=O)[C@@H](CCC(=O)NC[C@H](O)[C@@H](O)[C@H](O)[C@H](O)CO)NC(=O)CCCCCCCNC(=O)CCc2cccc(-c3c(C)n(Cc4c(F)cccc4F)c(=O)n(C[C@@H](N)c4ccccc4)c3=O)c2)C(=O)O)cs1)C(C)C (some centres unmarked) [JL-L3-TubBH],608,26,382,did not show any decline in tumor growth,complete elimination of the tumor,None of the mice either bearing MDA-MB-231 or SKVO3 experiences significant weight loss,None of the mice showed any indication of tumor growth and weight loss,None of the mice showed any indication of tumor growth and weight loss,None of the mice either bearing MDA-MB-231 or SKVO3 experiences significant weight loss,no reduction in tumor volume,–,–,–,–,–,–,–
Cc1c(-c2cccc(CCC(=O)NCCCCCCCC(=O)N[C@H](CCC(=O)NC[C@H](O)[C@@H](O)[C@H](O)[C@H](O)CO)C(=O)N[C@H](CCC(=O)O)C(=O)N[C@H](CCC(=O)NC[C@H](O)[C@@H](O)[C@H](O)[C@H](O)CO)C(=O)N[C@H](CSC3CC(=O)N(CCNC(=O)CCc4ccc(OC5=C(/C=C/C6=[N+](CCCCS(=O)(=O)O)c7ccc(S(=O)(=O)[O-])cc7C6(C)C)CCC/C5=C\C=C5\N(CCCCS(=O)(=O)O)c6ccc(S(=O)(=O)O)cc6C5(C)C)cc4)C3=O)C(=O)O)c2)c(=O)n(C[C@@H](N)c2ccccc2)c(=O)n1Cc1c(F)cccc1F (some centres unmarked) [JL-L3-S0456],–,–,–,–,–,–,–,–,–,–,high fluorescence,none or very minimal fluorescence,accumulated in the breast cancer tumor,able to compete the tumor uptake,only a very slight decrease in the intensity,receptor-mediated uptake,receptor-mediated uptake
